Results published in paper PMC5494602.

Target: Flag-TRAF3 (TNF receptor-associated factor 3, full length) (human (by the printed RefSeq NM_145725)) (UniProt Q13114)
Assay: co-IP

Chain of UniProt Q13114 (Q13114 whole entry): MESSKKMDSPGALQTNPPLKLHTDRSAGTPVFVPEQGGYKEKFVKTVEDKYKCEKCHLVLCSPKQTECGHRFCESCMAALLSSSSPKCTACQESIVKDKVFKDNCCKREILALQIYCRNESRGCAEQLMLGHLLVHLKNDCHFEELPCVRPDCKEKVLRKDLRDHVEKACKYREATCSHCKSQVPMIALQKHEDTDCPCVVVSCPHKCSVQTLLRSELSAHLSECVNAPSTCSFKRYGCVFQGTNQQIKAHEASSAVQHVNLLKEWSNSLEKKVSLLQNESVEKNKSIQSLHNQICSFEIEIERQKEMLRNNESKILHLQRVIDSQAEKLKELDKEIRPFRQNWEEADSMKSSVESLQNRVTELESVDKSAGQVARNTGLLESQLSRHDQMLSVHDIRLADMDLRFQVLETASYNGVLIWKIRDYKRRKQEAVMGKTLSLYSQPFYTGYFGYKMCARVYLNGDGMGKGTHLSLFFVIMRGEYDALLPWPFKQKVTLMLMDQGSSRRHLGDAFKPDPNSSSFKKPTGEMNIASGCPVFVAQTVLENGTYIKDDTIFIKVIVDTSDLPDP

Substance: HA-NS1 (wild-type NS1 of H5N1/HM) (natural protein)
- fold decrease of the MAVS-TRAF3 co-precipitate: 8.5 fold

Substance: HA-NS1/126-225 (C-terminal effector domain fragment of H5N1/HM NS1) (domain or fragment)
- fold decrease of the MAVS-TRAF3 co-precipitate: 4.6 fold
